Among the data in paper PMC4364632, “Engineering a fungal peroxidase that degrades lignin at very acidic pH” (Biotechnology for Biofuels, 2014) are Km, kcat and kcat/Km values, retold here.

A word on the Km: it is the concentration of substrate that gives half-maximal velocity. A word on the kcat: it is the maximal rate divided by the concentration of active sites. In general, kcat/Km refers to the turnover number divided by the Michaelis constant.

Series [1] relates to T1, VP1.
T1 construct: mature protein, signal peptide removed, untagged in pET23a
In words: ABTS cation radical formation at […] nm, steady-state kinetics. The format is biochemical, Pleurotus ostreatus. The settings on record: 0.1 mM H2O2, 0.1 M tartrate pH 3.5, 25°C; biphasic, high-efficiency site (catalytic Trp).

The test system of series [2] is T1, VP1. In words: veratraldehyde formation at […] nm, steady-state kinetics. To be noted: 0.1 mM H2O2, 0.1 M tartrate pH 3.0, 25°C. It counts as biochemical, Pleurotus ostreatus.
Series [3] has as its system T1, VP1. Description: RB5 disappearance at […] nm, steady-state kinetics. The format is biochemical, Pleurotus ostreatus. To be noted: 0.1 mM H2O2, 0.1 M tartrate pH 3.5, 25°C.
For series [4], the system named is T1, VP1. Description: dimeric coerulignone formation at […] nm, steady-state kinetics. The format is biochemical, Pleurotus ostreatus. To be noted: 0.1 mM H2O2, 0.1 M tartrate pH 3.5, 25°C; biphasic, high-efficiency site (catalytic Trp).
Substrate in series [5]: Nc1c(N=Nc2ccc(S(=O)(=O)CCOS(=O)(=O)O)cc2)c(S(=O)(=O)O)cc2cc(S(=O)(=O)O)c(N=Nc3ccc(S(=O)(=O)CCOS(=O)(=O)O)cc3)c(O)c12
In words: purified protein. The settings on record: 0.1 mM H2O2, 0.1 M tartrate pH 3.5, 25°C. It counts as biochemical, Gelatoporia subvermispora.

Substrate in series [6]: CCn1c(=NN=c2sc3cc(S(=O)(=O)O)ccc3n2CC)sc2cc(S(=O)(=O)O)ccc21
Description: purified protein. It counts as biochemical, Gelatoporia subvermispora. The settings on record: 0.1 mM H2O2, 0.1 M tartrate pH 3.5, 25°C.

Substrate in series [7]: COc1ccc(CO)cc1OC
Description: purified protein. The format is biochemical, Gelatoporia subvermispora. To be noted: 0.1 mM H2O2, 0.1 M tartrate pH 3.0, 25°C.

Substrate in series [8]: COc1ccccc1OC(CO)C(O)c1cc(OC)c(OC)c(OC)c1
In words: purified protein. The format is biochemical, Gelatoporia subvermispora. To be noted: 0.1 mM H2O2, 100 mM BR buffer pH 3.0, 25°C, unit doubtful: printed kcat/Km (s^-1.mM^-1) implies mM.

Substrate in series [9]: COc1cccc(OC)c1O
In words: purified protein. To be noted: 0.1 mM H2O2, 0.1 M tartrate pH 3.5, 25°C. The format is biochemical, Phanerodontia chrysosporium.

Substrate in series [10]: CCn1c(=NN=c2sc3cc(S(=O)(=O)O)ccc3n2CC)sc2cc(S(=O)(=O)O)ccc21
In words: purified protein. It counts as biochemical, Phanerodontia chrysosporium. To be noted: 0.1 mM H2O2, 0.1 M tartrate pH 3.5, 25°C.

Substrate in series [11]: COc1ccc(CO)cc1OC
Description: purified protein. It counts as biochemical, Phanerodontia chrysosporium. To be noted: 0.1 mM H2O2, 0.1 M tartrate pH 3.0, 25°C.

Changes are numbered by the printed parent chain. Names and notes keep the numbering of the source.

On to `CCn1c(=NN=c2sc3cc(S(=O)(=O)O)ccc3n2CC)sc2cc(S(=O)(=O)O)ccc21` [2,2'-azino-bis(3-ethylbenzothiazoline-6-sulfonate)], for which, in the series on VP1 [1], the Km came to 4 ± 0.4 µM.
For the molecule `COc1ccc(CO)cc1OC` [veratryl alcohol], the Km with VP1 [2] turned out to be 5500 ± 46 µM.
In the case of `Nc1c(N=Nc2ccc(S(=O)(=O)CCOS(=O)(=O)O)cc2)c(S(=O)(=O)O)cc2cc(S(=O)(=O)O)c(N=Nc3ccc(S(=O)(=O)CCOS(=O)(=O)O)cc3)c(O)c12` [Reactive Black 5], the Km in the series on VP1 [3] came out at 5.4 ± 0.2 µM.
For the molecule `COc1cccc(OC)c1O` [2,6-dimethoxyphenol], the Km in the series with VP1 [4] amounted to 54 ± 4 µM.

B1: MnP6 (Gelatoporia subvermispora B; S171W/S189W) (protein)
chain: APTAVCSDGTRVSNAVCCDFVSLGQDLQSMVLQGDCGEDAHEIIRLTFHDAVAISRKLGPSAGGGADGSMLLFPLVEPEFAASNGIDDSVNNLIPFLSLHPTISAGDLVQFAGAVALSNCPGAPRVQFLAGRPNHTIAAIDGLIPEPQDNVTWILERFDDAGGFTPFEVVWLLASHTIARADKVDPTLDAAPFDTTPFTFDSQIFLEVLLKGVGFPGLDNNTGEVSSPLPLGDTSTGGKDTGLMRLQSDFALAHDPRTACFWQGFVDQQEFMSQSFASAFAKLAVLGHNTDDLIDCSEVVPVPKPAVDKPTTFPATTGPQDLELSCLAERFPTLSVDPGAQETLIPHCSDGLENCTSVQFSGPATDSP
notes: mature protein, signal peptide removed, untagged in pET23a; S168W and S168W-environment variants
For the molecule B1, the Km came to 12.6 ± 3 µM in “purified protein [5]”, 60.2 ± 13.4 µM in “purified protein [6]”, 2740 ± 560 µM in “purified protein [7]” and 0.0049 ± 0.0013 mM in “purified protein [8]”. The turnover number (kcat) in “purified protein [5]” is 7.8 ± 1.1 s⁻¹; in the series “purified protein [6]” it was 1.4 ± 0.1 s⁻¹; in the series “purified protein [7]”, 0.54 ± 0.04 s⁻¹. Also, the specificity constant (kcat/Km) in “purified protein [5]” stood at 619000 ± 27000 M⁻¹ s⁻¹; in “purified protein [6]” it was 23000 ± 3000 M⁻¹ s⁻¹; in “purified protein [7]”, 197 M⁻¹ s⁻¹.

B2: MnP6 (Gelatoporia subvermispora B; F279E/F283M/F289K/Q292N/S171W/S189W/S293R/S296G/T183S) (protein)
chain: B1 chain with T165S, F261E, F265M, F271K, Q274N, S275R, S278G
notes: as for B1
As for B2, in “purified protein [5]”, the Km came to 5.4 ± 3 µM, the catalytic constant (kcat) amounted to 7 ± 1.1 s⁻¹ and the catalytic efficiency (kcat/Km) came out at 1.31e+06 ± 100000 M⁻¹ s⁻¹. In “purified protein [7]”, the Km amounted to 21600 ± 200 µM, the kcat turned out to be 1.69 ± 0.04 s⁻¹ and the kcat/Km was found to be 78 M⁻¹ s⁻¹.

B3: LiP-H8 (Phanerodontia chrysosporium) (protein)
chain: ATCSNGKTVGDASCCAWFDVLDDIQQNLFHGGQCGAEAHESIRLVFHDSIAISPAMEAQGKFGGGGADGSIMIFDDIETAFHPNIGLDEIVKLQKPFVQKHGVTPGDFIAFAGRVALSNCPGAPQMNFFTGRAPATQPAPDGLVPEPFHTVDQIINRVNDAGEFDELELVWMLSAHSVAAVNDVDPTVQGLPFDSTPGIFDSQFFVETQLRGTAFPGSGGNQGEVESPLPGEIRIQSDHTIARDSRTACEWQSFVNNQSKLVDDFQFIFLALTQLGQDPNAMTDCSDVIPQSKPIPGNLPFSFFPAGKTIKDVEQACAETPFPTLTTLPGPETSVQRIPPPPGA
Take B3: in the series “purified protein [9]”, the Km is 5.8 ± 0.5 µM, the kcat amounted to 10 ± 0.1 s⁻¹ and the specificity constant (kcat/Km) worked out at 1.72e+06 ± 153000 M⁻¹ s⁻¹. Besides, in the series “purified protein [10]”, the Michaelis-Menten constant (Km) was determined as 23.0 ± 1.6 µM, the kcat turned out to be 13 ± 0.2 s⁻¹ and the kcat/Km was 563000 ± 36000 M⁻¹ s⁻¹. For the same molecule, in “purified protein [11]”, the Km was determined as 190 ± 17 µM, the kcat is 17.5 ± 0.5 s⁻¹ and the kcat/Km turned out to be 92000 ± 6000 M⁻¹ s⁻¹.
